The source of these data is IntAct's records for PubMed 17227844.

First the molecules themselves.
B1: Spindle assembly checkpoint protein BUB3 (Saccharomyces cerevisiae), P26449 (parent)
chain: MQIVQIEQAPKDYISDIKIIPSKSLLLITSWDGSLTVYKFDIQAKNVDLLQSLRYKHPLLCCNFIDNTDLQIYVGTVQGEILKVDLIGSPSFQALTNNEANLGICRICKYGDDKLIAASWDGLIEVIDPRNYGDGVIAVKNLNSNNTKVKNKIFTMDTNSSRLIVGMNNSQVQWFRLPLCEDDNGTIEESGLKYQIRDVALLPKEQEGYACSSIDGRVAVEFFDDQGDDYNSSKRFAFRCHRLNLKDTNLAYPVNSIEFSPRHKFLYTAGSDGIISCWNLQTRKKIKNFAKFNEDSVVKIACSDNILCLATSDDTFKTNAAIDQTIELNASSIYIIFDYEN
partner: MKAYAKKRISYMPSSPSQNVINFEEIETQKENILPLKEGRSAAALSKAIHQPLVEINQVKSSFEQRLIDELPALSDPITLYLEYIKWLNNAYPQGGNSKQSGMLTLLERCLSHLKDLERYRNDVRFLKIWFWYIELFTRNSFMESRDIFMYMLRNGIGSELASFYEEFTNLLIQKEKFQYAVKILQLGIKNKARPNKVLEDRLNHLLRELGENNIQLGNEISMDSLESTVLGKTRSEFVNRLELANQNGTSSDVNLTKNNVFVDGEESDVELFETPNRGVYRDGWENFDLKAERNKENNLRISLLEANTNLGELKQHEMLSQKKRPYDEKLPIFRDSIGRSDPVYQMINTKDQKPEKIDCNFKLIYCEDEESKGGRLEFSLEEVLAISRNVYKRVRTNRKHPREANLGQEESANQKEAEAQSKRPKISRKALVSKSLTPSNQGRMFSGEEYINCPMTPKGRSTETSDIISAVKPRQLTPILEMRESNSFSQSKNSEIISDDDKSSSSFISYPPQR

The assay covers variants of B1. Particulars: with mad3_yeast MAD3, P47074.
In the case of R197E, the “effect of a mutation on the interaction” value was “disrupting interaction strength”.
